Earlier results, collected in paper PMC12135873.

Target: Cys106 (UniProt position 106, LIAAICAGPTA)

In the case of “DJ-1 (PARK7, Parkinson disease protein 7) (Homo sapiens)”, the pKa is given as 5.4.
